Variants at the floor of the assay were thinned out.
B1: TPR 5TU (parent)
chain: GGAUCUUCUCGAUCUAACAAAAAAGACAAAUCUGCCACAAAGCUUGAGAGCAUCUUCGGAUGCAGAGGCGGCAGCCUUCGGUGGCGCGAUAGCGCCAACGUUCUCAACUAUGACACGCAAAACGCGUGCUCCGUUGAAUGGAGUUUAUCAUG

Variants of: B1
Test: polymerase ribozyme fitness, log enrichment relative to wild type (log ratio); higher = more active; in vitro selection for triplet polymerase activity
Method in brief: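 Frozen incubation at −7 °C formed the core of a single, triplicate in vitro selection round applied to PCR-built, transcribed mutant libraries of each subunit of a heterodimeric triplet polymerase ribozyme. Extended constructs were gel-excised, captured with streptavidin beads and amplified by RT-PCR, and input and output libraries were Illumina-sequenced with a filter of ≥10 input reads and ≥1 read per output. Fitness is the logarithm of genotype enrichment relative to wild-type enrichment, with inverse-variance-weighted replicate averaging, and the logarithm is base 2.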

Variant | polymerase ribozyme fitness (log ratio)
GGAUCUACUCGAUCUAACAAAAAAGACAAUUUUGCCACAAAGUUUGAGAGCAUCUUCGGUUGCAGAGGCGGCAGCCUUCGGUGGCGCGAUAGCGCAAACGUUCUCAUCUAUGACACGCAAAACGCGUGCUCCGUUGAAUGGAGUUUAUCAUG [U7A A30U C32U C43U A60U C96A A107U] | -3.92
GGAUCUACGCGAUCUAACAAAAAAGACAAAUCUGCCACAAAGCUUGAGAGCAUCUUCGGAUGCAGAGGCGGCAGCCUUCGGUGGCGCGAUAGCGCCAACGUUCUCAACUAUGACACGCAAAACGCGUGCUCCGUUGAAUGGAGUUUAUCAUG [U7A U9G] | -3.64
GGAUCUCUUCGAUCUAACAAAAAAGACAAAUCUGCCACAAAGCUAGAGAGCAUCUUCGGAUGCAGAGCCGGCAGCCUUCGGUGGCGGGAUCGCGCCAACGUUCUCAACUAUGACACGCAAAACGCGUGCUCCGUUGAAUGGAGUUUAUCAUG [U7C C8U U45A G68C C87G A91C] | ≤ -4.2
GGAUCUCCUCGAUCUAACAAAAAAGACAAAUCUGCCACAACGCUUGAGAGUAUGAUCAGAUGCAGAGGCGGCAGCGUUCGGUGGCGGGAUAGCGCCAACGUUAUCAACUAUGACACGCAAAACGUGUGCUCCGUUGAAUGGAGUUUAUCAUG [U7C A41C C51U C54G U55A G58A C76G C87G C103A C125U] | ≤ -4.2
GGAUCUACUCGAUCUAACAAAAAAGACAAAUCUGCCACAAAGCUUGAGAGCAUCUUCGGAUGCAGAGGCGGCAGCCUUCGGUGGCGCGAUAGGGCCAACGUUCUCAACUAUGACACGCAAAACGCGUGCUCCGUUGAAUGGAGUUUAUCAUG [U7A C93G] | ≤ -4.2
GGAUCUACUCGAUCUAACAAAAAAGACAAAUCUGCCACAAAGCUUGAGAGCAUCUUCGGAUGCAGAGGCGGCAGCCUUCGGUGGCGCGAUAGUGCCAACGUUCUCAACUAUGACACGCAAAACGCGUGCUCCGUUGAAUGGAGUUUAUCAUG [U7A C93U] | -3.98
GGAUCUCGUCGAUCUAACAUAAAAGACAAAUCUGCCACAAAGCUUGAGAGCAUCAUCGGAUGCAGUGGCGGCAGCCUUCGGUGGCGCAAUAGCGCCAAGGUUCUCAACUAUGACACGCAAAACGCGUGCUCCGUUGAAUGGAUUUUAUCAUG [U7C C8G A20U U55A A66U G88A C99G G143U] | ≤ -4.2
GGAUCUACUCGAUCUAACAAAAAAUACAAAUCUGCCACCAAGCUUGAGUGCAUGUUCGGAUGCAGAGGCGGCAGCCUUCGGUGGCGCGAUAGCGUCAACGUUCUCAACUAGGACACGCAAAACGCGUGCUCCGUUGAAUGGAGUUUAUCAUG [U7A G25U A39C A49U C54G C95U U111G] | ≤ -4.2
GGAUCUACUCGAUCUAACAAAAAAGACAAAUGUGCCACAAAGCUUGAGAGCAUCUUCGGAUGCAGCGACGGCAGCCUUCGGUGGCGAGAUAGCGCCAACGUUCUCAACUAUGACACGCAAAACGCGUUCUCCGUUCAAUGGAGUUUAUCAUG [U7A C32G A66C G68A C87A G128U G136C] | ≤ -4.2
GGAUCUACUCGAUGGAACAAAAAAGACAAAUCUGCCACAAAGCUUGAGAGCAUCUUCGGAUGCAGAGGCGGCAGCCUUCGGUGGCGCAAUAGCGCCAACGUUCUCAACUAUGACACGCAAAACGCGUGCUCCGUUGAAUGGAGUUUAUCAUG [U7A C14G U15G G88A] | -3.61
GGAUCUACUCGAUCUAACAAAAAAGACAAAUCUGCCACAAAACUUGAGAGCAUCUUCGGAUGCAGAGGCGGCAGCCUUCGGUGGUGCGAUAGCGCCAACGUUCUCAACUAUGUCAUGCAAAACGGGUGCUCCGUUGAAUGGAGUUUAUCAUG [U7A G42A C85U A113U C116U C125G] | ≤ -4.2
GGAUCUCCUCGAUCUAACAAAAAAGACAAAUCUGACACAAAGCUUGAGAGCAUCUUCGGAUGCAGAGGCGGCAGCCUUCGGUGGCGAGAUAGCGUCAACGUUCUCAACUAUGACAGGCAAAACGCGUGCUCCGUUGAAUGGAGUUUAUCAUG [U7C C35A C87A C95U C116G] | ≤ -4.2
GGAUCUACUCGAUCUAACAAAAAAGACAAAUUUGUCACAAAGCUUGAGAGCAUCUUCGGAUGCAGAGGCGGCAGCCUUCGGUGGCGCGACAGCGCCAACGUUCUCAACUAUGACACGCAAAACGCGUGCUCCGUUGAAUGCACUUUAUCAUG [U7A C32U C35U U90C G141C G143C] | ≤ -4.2
GGAUCUACUCGAUCUAACAAAAAAGACAAAUGCGCCACAAAGCUUGAGAGCAUCUUCGGAUGCAGAGGCGGCAGCCUUCGGUGGCGAGAUAGCGCUAACGCUCUCAACUAUGACAAGCAAAACGCGUGCUCCGUUGAAUGGAGUGCAUCAUG [U7A C32G U33C C87A C96U U101C C116A U145G U146C] | ≤ -4.2
GGAUCUACUCGAUGUAACAAAAAAGACAAACCUGCCACAAAGCUUGAGAGCAUCUUCGGAUGCAGAGGCGGCAGCCUUCGGUGGCACGAUAGCGCCAACGUUCUCAACUAUGACACGCAAAACGCGUGCUCCGUUGAAUGGAGUUUAUCAUG [U7A C14G U31C G86A] | ≤ -4.2
GGAUCUACUCGAUCUAACAAAAAAGACAAAUCUGCCACAAAGCUUGAGAGCAUCUUCGGAUGCAGAGGCGGCAGCCUUCGGUGGCGCGAUAGUGCCAACGUUCUCAACUAUGACGCGCAAAACGCGUGCUCCGUUGAAUGGAGUUUAUCAUG [U7A C93U A115G] | ≤ -4.2
GGAUCUACUCGAUCUAACAAAAAAGACAAAUCUGCCACAAAGCUUGAGAGCAUCUUCGGAAGCAGAGGCGGCAGCCUUCGGUGGCGCGAUAGCGCCAACGUUCUCAACUAUGACACGCUAAACGCGUGCUCCGUUGAAUGGAGUUUAUCAUG [U7A U61A A119U] | ≤ -4.2
GGAUCUACUCGAUCUAACAAAAAAGACAGAUCUGCCACAAAGCUUGAGAGCAUCUUCGGAUGCAGAGGCGGCAGCCUUCGGUGGAGCGAUAGCGCCAACGUUCUCAACUAUGAAACGCAAGACGCGUGCUCCGCUGAAUGGAGUUUAUCAUG [U7A A29G C85A C114A A121G U134C] | ≤ -4.2
GGAUCUCCUCGAUCUUACAAAAAAGACAAAUCUGCCACAAAGCUUGAGAACAUAUUAGGAUGCAGAGGCGGGAGCCUUCGGUGGGGCGAUAGCGCCAUCGUUCUCAACUAUGACACGCAAAACGCGUGCUCCGUUGAAUGAAGUUUAUCAUG [U7C A16U G50A C54A C57A C72G C85G A98U G141A] | ≤ -4.2

Reference: the RNAGym collection of RNA variant scans (doi:10.1073/pnas.2313332121)
